The assay addresses human Y4 receptor (human, UniProt P50391 1-375). The assay can be described thus: 125I-PP displacement.
human Y4 receptor, sequence (P50391 whole entry): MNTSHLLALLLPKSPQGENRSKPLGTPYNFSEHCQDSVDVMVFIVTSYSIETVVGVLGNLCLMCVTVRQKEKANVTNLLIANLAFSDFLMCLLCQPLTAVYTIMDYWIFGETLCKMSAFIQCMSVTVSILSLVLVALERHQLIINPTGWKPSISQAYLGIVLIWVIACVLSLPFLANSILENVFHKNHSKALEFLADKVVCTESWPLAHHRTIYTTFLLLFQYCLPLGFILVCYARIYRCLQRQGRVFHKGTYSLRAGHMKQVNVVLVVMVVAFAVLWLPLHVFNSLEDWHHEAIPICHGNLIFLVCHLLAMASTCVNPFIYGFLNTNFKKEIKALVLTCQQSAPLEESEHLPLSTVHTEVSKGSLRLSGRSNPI
One may read the IC50 as the concentration that gives 50% inhibition. With GAPLEPEAPGDNATPEQMAKYYSELRRYIDKLTRPRY [4060693], the IC50 came to 0.172 nM.
Molecule GAPLEPVAPGDNATPEQMARYYSELRRYIDKLTRPRY [4060690] came in with a half-inhibitory concentration (IC50) of 0.171 nM.
As for YAPLEPEYPGDDATPQQKARYAAELRRYIDKLTRPRY [4060682], the IC50 worked out at 0.131 nM.
GAPLEPEYPGDNATPEQLARYAAALRRYINKLTRPRY [4060356] yielded an IC50 of 0.091 nM.
Regarding PAPLEPEYPGDNATPEQKAKYAAALRRYINRLTRPRY [4060278], the IC50 came out at 0.062 nM.
The molecule PAPLEPEYPGDNATPEQKAKYAAALRRYINHLTRPRY [4060275] returned an IC50 of 0.106 nM.
Molecule GAPLEPEYPGDNATPEEMARYAAALRRYINKLTRPRY [4060359] returned an IC50 of 0.099 nM.
GAPLEPEYPGDNATPEQKARYAAALRRYINKLTRPRY [4060309] displayed an IC50 of 0.046 nM.
In the case of GAPLEPEYPGDNATPEQMARYAAALRRYINHLTRPRY [4060358], the half-maximal inhibitory concentration (IC50) amounted to 0.08 nM.
Take GAPLEPVYPGDNATPEQLAKYAAELRRYIDKLTRPRY [4060897]: the IC50 was 0.137 nM.
In turn, PAPLEPKYPGDNATPEQLAKYAAELRRYIDKLTRPRY [4060893] displayed an IC50 of 0.11 nM.
For the molecule GAPLEPVYPGDNATPEQKAKYAAELRRYIDHLTRPRY [4061086], the IC50 came out at 0.213 nM.
The figure for GAPLEPVYPGDNATPEQKAKYAAELRRYIDRLTRPRY [4061090] is 0.1 nM; for GAPLEPVYPGDNATPEQKAKYAAELRRYIDKLTRPRY [4061084] it is 0.174 nM; for PAPLEPVYPGDNATPEQKAKYAAELRRYIDRLTRPRY [4061091] it is 0.107 nM.
As for PAPLEPTYPGDNATPEQKAKYYSELRRYINKLTRPRY [4060280], the figure is 0.064 nM; as for PAPLEPKYPGDNATPEQMAKYYSELRRYIDHLTRPRY [4060602], 0.173 nM; as for YAPLEPTYPGDNATPEQKAKYAAELRRYIDKLTRPRY [4061083], 0.124 nM.
As to PAPLEPKYPGDNATPEQLAKYYSELRRYIDKLTRPRY [4060605], the half-inhibitory concentration (IC50) was 0.14 nM.
The molecule PAPLEPKYPGDNATPEEMAKYYSELRRYIDKLTRPRY [4060894] displayed an IC50 of 0.126 nM.
In turn, PAPLEPTYPGDNATPEQLAKYYSELRRYINKLTRPRF [4060284] came in with an IC50 of 0.055 nM.
Turning to GAPLEPTYPGDNATPEQLAKYYSELRRYINKLTRPRF [4060283], the IC50 worked out at 0.073 nM.

The record behind these values is patent US20100279930A1 (published 2010).
